Data taken from patent US20080107662A1.

Tests used:
[1] = target: Maltose Binding Protein (MBP) (E. coli) [MBP: P0AEX9]; test: ELISA control without serum, antigen MBP
[2] = target: MBP-ABL (E. coli) [MBP: P0AEX9]; test: ELISA control without serum, antigen MBP-ABL
38C13 IgM Id = test: ELISA control without serum, antigen 38C13 IgM Id

ELISA reading [1]: 0.055 | ELISA reading [2]: 0.052 | ELISA reading (38C13 IgM Id): 0.09
Substance: Secondary Ab only (antibody)
